The text below walks through data of doi:10.1101/2020.09.11.292599 (bioRxiv, 2020).

B3: recombinant PII, tag not stated for this experiment (natural protein, UniProt Q55247 1-112, looked up)
chain: MKKVEAIIRPFKLDEVKIALVNAGIVGMTVSEVRGFGRQKGQTERYRGSEYTVEFLQKLKIEIVVDEGQVDMVVDKLVSAARTGEIGDGKIFISPVDSVVRIRTGEKDTEAI

Where two headings read alike, the source gives them in different places.

The target in data set [1] is T1, His6-tagged 2,3-bisphosphoglycerate-independent phosphoglycerate mutase (PGAM, Slr1945) (Synechocystis sp. PCC 6803, UniProt P74507 1-532).
T1 sequence (looked up): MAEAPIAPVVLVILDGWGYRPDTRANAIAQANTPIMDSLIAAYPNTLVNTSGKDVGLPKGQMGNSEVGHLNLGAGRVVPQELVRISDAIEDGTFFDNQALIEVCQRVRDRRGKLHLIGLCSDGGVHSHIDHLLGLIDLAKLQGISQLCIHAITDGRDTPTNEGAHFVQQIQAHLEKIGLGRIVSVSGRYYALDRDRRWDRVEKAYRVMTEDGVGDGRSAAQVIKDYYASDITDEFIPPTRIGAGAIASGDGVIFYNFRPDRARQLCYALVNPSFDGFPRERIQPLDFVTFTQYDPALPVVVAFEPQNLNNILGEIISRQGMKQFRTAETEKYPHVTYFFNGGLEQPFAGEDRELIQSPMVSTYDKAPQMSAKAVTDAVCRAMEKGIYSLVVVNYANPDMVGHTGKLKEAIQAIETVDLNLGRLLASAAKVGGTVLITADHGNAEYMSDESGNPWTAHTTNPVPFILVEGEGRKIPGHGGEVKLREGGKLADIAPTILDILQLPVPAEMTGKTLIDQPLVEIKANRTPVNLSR
Briefly: BLI.

In data set [2] the target is T1, His6-tagged …. Briefly: BLI. The source holds these as a separate data set.
In data set [3] the target is T2, C-terminally His8-tagged PII (UniProt Q55247 1-112). Briefly: BLI.
In data set [4] the target is T2, C-terminally His8-tagged PII. Briefly: BLI. This is another data set of the same source.
Data set [5] concerns the target B3. Briefly: SEC-MALS.
The data set “SEC-MALS” concerns the molecule itself. Kind of data set: SEC-MALS.
Data set [6] deals with T2, C-terminally His8-tagged PII. Kind of data set: SPR.

B1: Strep-tagged PirC (Sll0944), 112 amino acid version starting at Met 53 (natural protein, Synechocystis sp. PCC 6803, UniProt P77971 53-164, looked up)
chain: MSQILDPIPNNQPSALFCCYVNATNQIQVARITNVPNWYFERVVFPGQRLVFEAVPSAQLEIHTGMMASSIISDTIPCEQLSIDPDGLAAGGFISPEKEHESEDMTSQSLVA
In the case of B1, the Kd in data set [1] came out at 1700 nM; in data set [2], 459 nM; in data set [3], 14.1 ± 0.7 nM; in data set [4] it was 37.3 ± 2.5 nM.

B2: recombinant PirC (Sll0944), 112 amino acid version, tag not stated for this experiment (natural protein, Synechocystis sp. PCC 6803, UniProt P77971 53-164, looked up)
chain: MSQILDPIPNNQPSALFCCYVNATNQIQVARITNVPNWYFERVVFPGQRLVFEAVPSAQLEIHTGMMASSIISDTIPCEQLSIDPDGLAAGGFISPEKEHESEDMTSQSLVA
Turning to B2, the figures for the “stoichiometry N” value (in data set [5]; in the data set “SEC-MALS”; in data set [6]) were 1 PirC monomer per PII trimer, 2 and ~1 PirC monomer per PII trimer, respectively.

B3: the “stoichiometry N” value in the data set “SEC-MALS” was determined as 3.
